Substitutions are numbered along the chain they refer to.
How the values were obtained:
[1] = target: T1, ALCAM/MEMD/CD166 (UniProt Q13740 28-583, limits assumed); assay: caption of the IHC table
T1 construct: whole, on cells; On Du-145 prostate cancer cells for FACS, and from lysates of surface-biotinylated Du-145 cells for IP/Western; Glycosylated, with a band of about 105 kDa; Du-145 is a human prostate cancer line
T1 sequence (looked up): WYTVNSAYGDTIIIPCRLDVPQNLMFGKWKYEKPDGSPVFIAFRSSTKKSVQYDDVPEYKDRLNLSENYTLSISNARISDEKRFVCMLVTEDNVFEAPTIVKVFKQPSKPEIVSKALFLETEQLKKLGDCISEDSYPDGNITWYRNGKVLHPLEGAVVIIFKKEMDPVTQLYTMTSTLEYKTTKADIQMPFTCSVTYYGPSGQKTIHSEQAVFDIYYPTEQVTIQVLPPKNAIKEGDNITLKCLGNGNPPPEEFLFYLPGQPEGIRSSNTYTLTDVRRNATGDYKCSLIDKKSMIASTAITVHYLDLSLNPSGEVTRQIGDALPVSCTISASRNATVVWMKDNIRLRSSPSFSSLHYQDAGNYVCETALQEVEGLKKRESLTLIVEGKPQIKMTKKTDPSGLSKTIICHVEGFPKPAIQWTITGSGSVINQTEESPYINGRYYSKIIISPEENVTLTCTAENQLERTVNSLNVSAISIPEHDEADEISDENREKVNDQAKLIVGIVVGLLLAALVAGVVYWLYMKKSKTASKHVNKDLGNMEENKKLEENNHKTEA
Source text: Phage antibodies selected by LCM were expected to bind to clinically relevant antigens on cancer cells in situ. We performed immunohistochemical studies using soluble scFv fragments derived from LCM-selected phage antibody on prostate cancer tissue sections. […] The 585II41 scFv also stained tumor cells intensely on frozen tissue slides (FIG. 4, panel B). Some basal cells in normal epithelium adjacent to tumor were also stained with reduced intensity (Table 5). […] These experiments indicate that antibodies obtained from LCM selection bind to antigens that exist in patient specimens and thus are clinically relevant to human prostate cancer. The corresponding antigens are likely targets for therapeutic intervention.
TABLE 5 Immunohistochemistry (IHC) results of the 585II41 and UA20 scFv fragments on a panel of frozen CaP and normal tissues. The numbers of cases studied are indicated. Biotinylated scFv fragments were first tested on cell lines to ensure binding activity and then used for IHC studies. As a control, a random scFv with no binding activity to cell lines was used to register the background level of staining. No change, no change in staining level was observed when compared with the result of the control scFv

[2] = target: T1, ALCAM/MEMD/CD166; assay: FACS competition on Du-145 cells against 585II41 scFv
[3] = target: T1, ALCAM/MEMD/CD166; assay: apparent KD by FACS on Du-145 cells, IgG1 incubated at 4° C. overnight, curve fitting of MFI
Method: Monodispersed DU-145 cells were incubated with varying concentrations of IgG1s at 4° C. overnight to allow equilibrium binding. After washing, bound human IgG1s were detected by R-phycoerythrin-conjugated goat anti-human secondary antibody and analyzed by FACS. Mean fluorescence intensity (MFI) values were plotted and the KD was determined by curve fitting using GraphPad (GraphPad Software, San Diego, Calif.).

B1: 585II41 scFv (scFv, not shown: small tags and cut ends)
scFv: QVQLVESGGGLVQPGGSLRLSCAASGFTFSSYAMGWVRQAPGKGLEWVSAISGSGGSTYYADSVKGRFTISRDNSKDTLYLQMNSLRAEDTAVYYCASRSLLDYWGQGTLVTVSSGGGGSGGGGSGGGGSNFMLTQDPAVSVALGQTVRITCQGDSLRSYYASWYQQKPGQAPLLVIYGKNNRPSGIPDRFSGSSSGNTASLTITGAQAEDEADYYCNSRDSSGNPVFGGGTKVTVL
notes: Soluble monomeric scFv from E. coli periplasm, purified by IMAC; Biotinylated for FACS analysis by the general methods; also called clone #10; H3 variant
- binding result [1]: binds

B2: H3 scFv (585II41.1) (scFv)
scFv: B1 scFv with G35S
notes: also called clone #11; anti-ALCAM scFv
- binding result [2]: binds

B3: anti-ALCAM IgG1 (585II41.1, also known as H3) (antibody, V domains shown)
VH: QVQLVESGGGLVQPGGSLRLSCAASGFTFSSYAMSWVRQAPGKGLEWVSAISGSGGSTYYADSVKGRFTISRDNSKDTLYLQMNSLRAEDTAVYYCASRSLLDYWGQGTLVTVSS
VL: NFMLTQDPAVSVALGQTVRITCQGDSLRSYYASWYQQKPGQAPLLVIYGKNNRPSGIPDRFSGSSSGNTASLTITGAQAEDEADYYCNSRDSSGNPVFGGGTKVTVL
notes: Human IgG1 (detected with anti-human secondary antibody); also called H3 IgG; H3 IgG1
- Kd [3]: 4.4 µM

Source: US20100233165A1 (published 2010)
